Measured values reported in patent US20200095636A1, “ANTIDOTE-MEDIATED REVERSAL OF EXTRACELLULAR APTAMER STAINING” (Duke University, published 2020).
Blank lines part the entries; values can stand above or below the molecule they belong to.

Experiments:
[1] = target: epidermal growth factor receptor (EGFR) on A431 epidermoid carcinoma cells (human) (UniProt P00533); assay: flow cytometry of stained A431 cells immediately before and after FACS
[2] = target: EGFR (epidermal growth factor receptor) (Homo sapiens, UniProt P00533 P00533:25-1210); assay: flow; apparent; A431 cells, on ice 30 min, media + 1% BSA + salmon sperm DNA; binding blocked or reversed at 37 C by antidotes A9 and mA9 but not scrambled sA9; details: tags: endogenous on A431 epidermoid carcinoma cells (ATCC); label: 5' AF488
Procedure: All aptamers were folded in PBS+/+ by denaturation at 65° C. for 5 min followed by passive cooling to ambient temperature for 3 min. In general, 500 nM aptamer solutions were used for staining, but this concentration varied as noted in some assays. For aptamer-SA staining solutions, 2:1 aptamer conjugates were prepared with 1 μM aptamer and 500 nM AF488-SA or AF647-SA. All staining solutions were prepared in Media+ and contained 1 mg/mL salmon sperm DNA to mitigate non-specific binding. All antibodies were used as 1:50 dilutions in Media+ with 1 mg/mL salmon sperm DNA. Both FITC-conjugated ICR10 (Abcam) and PE-conjugated D1D4J (Cell Signaling Technologies) monoclonal EGFR antibodies were used for staining.
A431 cells were stained with various concentrations (25, 50, 125, 250 or 500 nM) of E07 only or E07-SA conjugate mixtures prepared by reacting 1:1, 2:1 or 3:1 biotinylated E07 with tetrameric streptavidin. Stained cells were washed, analyzed by flow cytometry and their fluorescence corresponding to the amount of bound E07 or E07-SA was plotted to determine apparent binding affinities (dissociation constants; KD) and cell surface saturation (total number of receptors; Bmax). Conjugate mixtures prepared from higher E07: SA ratios had higher apparent affinities, but lower apparent saturation.

losses during sorting (percent of stain fluorescence lost) [1]: 11%
Molecule: FITC-conjugated ICR10 (Abcam) monoclonal EGFR antibody

losses during sorting (percent of stain fluorescence lost) [1]: 11%
Molecule: PE-conjugated D1D4J (Cell Signaling Technologies) monoclonal EGFR antibody

B1: E07 (ssRNA)
RNA: GGACGGAUUUAAUCGCCGUAGAAAGCAUGUCAAAGCCGGAACCGUCC
modifications: 2'-F C/U, 2'-OH purines, 3' idT
Kd [2]: 62.7 nM
